T1: CD70 expressed by cancer cell lines and tumor tissues (786-O, SK-OV-3/SKOV-3, Caki-1, PANC-1 and others) (UniProt P32970)
T1 sequence (looked up): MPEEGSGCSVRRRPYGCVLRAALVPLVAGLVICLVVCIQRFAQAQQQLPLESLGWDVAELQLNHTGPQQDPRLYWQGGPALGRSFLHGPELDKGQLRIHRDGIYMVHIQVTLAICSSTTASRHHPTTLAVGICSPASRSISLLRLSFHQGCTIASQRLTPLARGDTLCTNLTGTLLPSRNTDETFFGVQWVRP

B1: h1F6vc-MMAF(4) (antibody, INN chains, looked up, V domains shown)
VH: QVQLVQSGAEVKKPGASVKVSCKASGYTFTNYGMNWVRQAPGQGLKWMGWINTYTGEPTYADAFKGRVTMTRDTSISTAYMELSRLRSDDTAVYYCARDYGDYGMDYWGQGTTVTVSS
VL: DIVMTQSPDSLAVSLGERATINCRASKSVSTSGYSFMHWYQQKPGQPPKLLIYLASNLESGVPDRFSGSGSGTDFTLTISSLQAEDVAVYYCQHSREVPWTFGQGTKVEIK
modifications: vc-MMAF, 4 drugs per antibody
B2: h1F6vc-MMAE(4) (antibody, INN chains, looked up, V domains shown)
VH: QVQLVQSGAEVKKPGASVKVSCKASGYTFTNYGMNWVRQAPGQGLKWMGWINTYTGEPTYADAFKGRVTMTRDTSISTAYMELSRLRSDDTAVYYCARDYGDYGMDYWGQGTTVTVSS
VL: DIVMTQSPDSLAVSLGERATINCRASKSVSTSGYSFMHWYQQKPGQPPKLLIYLASNLESGVPDRFSGSGSGTDFTLTISSLQAEDVAVYYCQHSREVPWTFGQGTKVEIK
modifications: vc-MMAE, 4 drugs per antibody
B3: h1F6mc-MMAF(8) (antibody, INN chains, looked up, V domains shown)
VH: QVQLVQSGAEVKKPGASVKVSCKASGYTFTNYGMNWVRQAPGQGLKWMGWINTYTGEPTYADAFKGRVTMTRDTSISTAYMELSRLRSDDTAVYYCARDYGDYGMDYWGQGTTVTVSS
VL: DIVMTQSPDSLAVSLGERATINCRASKSVSTSGYSFMHWYQQKPGQPPKLLIYLASNLESGVPDRFSGSGSGTDFTLTISSLQAEDVAVYYCQHSREVPWTFGQGTKVEIK
modifications: mc-MMAF, 8 drugs per antibody

The values that follow come from patent US20110300131A1.

In the assay the target is T1, CD70 expressed by cancer cell lines and tumor tissues (786-O, SK-OV-3/SKOV-3, Caki-1, PANC-1 and others). Kind of assay: cell-based or functional assay.
As for h1F6mc-MMAF(4) (antibody), the IC50, viability of SKOV-3 cells after 96 hours (Promega CelltiterGlo) came to 29 ng/mL.

With B1, the IC50, viability of SKOV-3 cells after 96 hours (Promega CelltiterGlo) was 5 ng/mL. In turn, B2 registered an IC50, viability of SKOV-3 cells after 96 hours (Promega CelltiterGlo) of 60 ng/mL. As for B3, the figure is 12 ng/mL.
